Results taken from the supplement of paper PMC10567573.

B1: IMPA1 (parent)
chain: FIGEESVAAGEKSILTDNPTWIID

Variants of: B1
Test: protein stability index of a GFP-peptide fusion (GPS, HEK-293T) (PSI 1-6); higher = more stable
Conditions: c terminus: a fixed tail appended
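Also: lentivirally expressed fusions sorted by FACS into six bins by GFP to DsRed ratio, PSI derived from sequencing read proportions per bin multiplied by bin number.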

Protein stability index: each site, then its substitutions
T20: Y 1.7, R 2.73, S 2.56, P 2.25, I 1.73, M 1.82, G 2.71, H 2.67, D 3.32, L 2.05, C 2.2, K 3.4, A 2.43
N18: F 2.46, G 2.71, E 3.48, Q 2.86, H 2.95, P 3.14, W 2.1, R 2.31, V 2.75, I 2.71, L 2.88, D 3.68, M 2.6
W21: K 4.78, Y 3.96, R 4.48, A 4.65, C 4.23, N 4.57, F 3.89, Q 4.65, I 3.92, H 4.71, M 4.69, G 4.71, T 4.87, P 4.67, L 4.06
F1: D 5.07, K 4.61, S 4.96, V 4.52, C 4.46, H 4.56, W 3.74, I 3.98, L 4.34, M 4.6, E 4.81, T 4.76
I22: E 4.71, V 2.31, P 3.76, T 1.68, D 4.58, S 2.35, H 3.37, Y 2.82, L 2.67, A 1.76, M 2.57, R 2.09, C 2.18, K 2.48
L15: P 2.57, W 2.48, F 2.06, Y 2.05, T 2.33, M 2.15, R 2.17, H 2.22, A 2.33, V 2.52, G 2.77, Q 2.28, I 1.98, D 2.83, E 2.61
K12: F 1.56, Y 2.35, E 2.21, P 2.45, W 1.97, R 2.57, G 1.91, D 2.27, M 2.29, S 2.12, L 2.25, N 1.89, T 2.32, I 1.61, H 2.06
S13: R 2.4, Q 1.99, A 2.06, E 2.32, W 2.21, N 1.98, Y 2, M 1.73, D 2.44, V 2.47, L 1.95, I 1.99, T 1.89, G 1.67
I23: H 3.75, Q 3.39, V 2.02, S 2.27, A 1.84, K 3.64, Y 3.45, W 2.59, D 3.04, F 2.81, T 1.92, C 3.44, N 3.55
G10: A 2.18, E 2.8, V 2.37, H 1.87, Y 1.85, P 2.15, F 1.85, I 2.43, Q 2.67, D 2.48, T 2.19, L 2.41, R 1.97, K 2.01, C 2.21, N 2.21
T16: E 2.64, Y 1.64, N 2.89, C 3.16, G 2.11, A 2.35, K 2.73, L 1.83, F 1.66, S 1.94, V 2.21
P19: K 2.2, G 3.13, S 2.38, C 1.76, I 2.32, D 3.09, M 2.27, E 3.51, A 2.41, T 2.83, H 3.02, R 1.96, F 2.35
V7: L 2.25, M 1.94, G 2.15
